According to PMC6006435:

Biological target: Ageratum yellow vein virus capsid protein (CP), in the geminate virus particle (Ageratum yellow vein virus)
Experiment: cryo-EM structure; single-particle cryo-EM of purified AYVV geminate particles, D5 symmetry, 3.3 Å; particles in 100 mM sodium phosphate pH 7.0; capsid holds the genomic ssDNA

## Ageratum yellow vein virus capsid protein (CP), in the geminate virus particle (natural protein)
  stoichiometry N: 110
